Data from patent US20210292422A1 (SURROZEN, published 2021).
One block for each binder: values may come before it.

Columns and labels:
FZD5 = target: T1, FZD5 (UniProt Q13467 28-150, limits assumed); test: column 'Specificity (Clone name)' of the component table; method not given there
T1 construct: also called Frizzled 5
T1 sequence (looked up): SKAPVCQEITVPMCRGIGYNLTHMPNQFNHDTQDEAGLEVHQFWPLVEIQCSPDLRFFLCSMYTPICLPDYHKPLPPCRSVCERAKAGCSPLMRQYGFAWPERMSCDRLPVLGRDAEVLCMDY

FZD7 = FZD7 (UniProt O75084 44-163); test: as above
LRP6E3E4 [1] = target: T2, LRP6E3E4 (UniProt O75581 631-1246); test: BLI (Octet), FIG. 12E
T2 construct: domain: E3E4
T2 sequence (looked up): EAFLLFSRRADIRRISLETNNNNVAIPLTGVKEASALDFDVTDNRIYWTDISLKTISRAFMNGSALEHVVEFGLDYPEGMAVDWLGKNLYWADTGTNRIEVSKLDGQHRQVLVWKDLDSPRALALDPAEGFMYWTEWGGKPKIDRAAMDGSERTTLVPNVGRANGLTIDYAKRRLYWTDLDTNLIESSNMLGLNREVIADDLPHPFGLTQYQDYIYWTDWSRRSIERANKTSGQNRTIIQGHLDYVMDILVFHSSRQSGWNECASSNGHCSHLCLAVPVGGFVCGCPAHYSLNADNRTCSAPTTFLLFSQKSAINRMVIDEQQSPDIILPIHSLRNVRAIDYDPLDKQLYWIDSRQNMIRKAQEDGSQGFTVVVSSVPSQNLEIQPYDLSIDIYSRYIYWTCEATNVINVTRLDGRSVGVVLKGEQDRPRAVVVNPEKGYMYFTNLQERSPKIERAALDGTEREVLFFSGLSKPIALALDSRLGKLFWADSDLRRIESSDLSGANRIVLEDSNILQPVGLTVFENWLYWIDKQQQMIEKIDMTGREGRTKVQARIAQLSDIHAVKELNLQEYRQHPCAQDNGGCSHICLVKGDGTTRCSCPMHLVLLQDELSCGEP

LRP6E1E2 = target: T3, LRP6E1E2 (UniProt O75581 20-630); test: BLI (Octet), FIG. 12E
T3 construct: domain: E1E2; also called LRP6 E1E2 domains
T3 sequence (looked up): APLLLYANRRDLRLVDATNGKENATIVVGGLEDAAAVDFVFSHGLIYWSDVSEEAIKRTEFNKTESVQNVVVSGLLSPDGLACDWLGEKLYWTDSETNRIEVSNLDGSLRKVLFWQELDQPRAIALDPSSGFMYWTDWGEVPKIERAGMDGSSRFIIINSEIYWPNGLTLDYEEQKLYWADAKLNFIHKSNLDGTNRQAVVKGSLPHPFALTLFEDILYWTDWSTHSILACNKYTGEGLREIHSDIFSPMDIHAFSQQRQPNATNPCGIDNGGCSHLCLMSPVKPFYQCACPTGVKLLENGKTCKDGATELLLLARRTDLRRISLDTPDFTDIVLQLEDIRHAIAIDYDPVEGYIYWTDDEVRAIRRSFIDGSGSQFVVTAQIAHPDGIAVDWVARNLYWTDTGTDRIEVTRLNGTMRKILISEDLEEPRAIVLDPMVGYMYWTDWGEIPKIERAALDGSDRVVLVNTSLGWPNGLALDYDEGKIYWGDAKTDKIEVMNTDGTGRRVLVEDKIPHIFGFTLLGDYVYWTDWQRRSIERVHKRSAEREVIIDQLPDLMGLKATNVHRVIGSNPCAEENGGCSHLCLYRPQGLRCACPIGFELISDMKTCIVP

FZD8 CRD = target: T4, FZD8 CRD (UniProt Q9H461 30-151); test: BLI (Octet), sequential: FZD8 CRD on sensor, tandem scFv, then LRP6 E3E4
T4 construct: domain: CRD
T4 sequence (looked up): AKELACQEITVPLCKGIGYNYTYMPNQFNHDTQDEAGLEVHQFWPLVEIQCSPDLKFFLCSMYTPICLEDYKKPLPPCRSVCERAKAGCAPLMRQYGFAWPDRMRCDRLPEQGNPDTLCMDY

LRP6E3E4 [2] = target: T2, LRP6E3E4; test: as above

binding result (FZD5): binds
binding result (FZD7): binds
B1: F1: antiFZD1, 2, 7, 5, 8 (18R5) scFv (scFv)
scFv: EVQLVESGGGLVQPGGSLRLSCAASGFTFSHYTLSWVRQAPGKGLEWVSVISGDGSYTYYADSVKGRFTISSDNSKNTLYLQMNSLRAEDTAVYYCARNFIKYVFANWGQGTLVTVSSGGGGSGGGGSGGGGSDIELTQPPSVSVAPGQTARISCSGDNIGSFYVHWYQQKPGQAPVLVIYDKSNRPSGIPERFSGSNSGNTATLTISGTQAEDEADYYCQSYANTLSLVFGGGTKLTVL

binding result (LRP6E3E4 [1]): binds
B2: L2:5:αGFP:Fc (bispecific antibody)
chain: EVQLVESGGGLVQPGGSLRLSCAASGFTFTSYYISWVRQAPGKGLEWVAEISPYSGSTYYADSVKGRFTISADTSKNTAYLQMNSLRAEDTAVYYCALRARPPIRLHPRGSVMDYWGQGTLVTVSSGSAASGSSGGSSSGADIQMTQSPSSLSASVGDRVTITCRASQDVSTAVAWYQQKPGKAPKLLIYSASFLYSGVPSRFSGSGSGTDFTLTISSLQPEDFATYYCQQSYTTPPTFGQGTKVEIKGSGSGQVQLVESGGGLVQPGGSLRLSCAASGFTFSRYGMHWVRQAPGKGLEWVSGISSIGSNTYYADSVKGRFTISRDNSKNTLYLQMNSLRAEDTAVYYCARWYKTYIDVWGQGTLVTVSSGGGGSGGGGSGGGGSDIELTQPPSVSVAPGQTARISCSGDNLGKKYVYWYQQKPGQAPVLVIYGDDERPSGIPERFSGSNSGNTATLTISGTQAEDEADYYCASYDSSHILIVFGGGTKLTVLGSGSGDKTHTCPPCPAPEAAGGPSVFLFPPKPKDTLMISRTPEVTCVVVDVSHEDPEVKFNWYVDGVEVHNAKTKPREEQYNSTYRVVSVLTVLHQDWLNGKEYKCKVSNKALGAPIEKTISKAKGQPREPQVYTLPPSREEMTKNQVSLTCLVKGFYPSDIAVEWESNGQPENNYKTTPPVLDSDGSFFLYSKLTVDKSRWQQGNVFSCSVMHEALHNHYTQKSLSLSPGK
notes: 0FZD:2LRP control

binding result (FZD7): binds
B3: F2: antiFZD1, 2, 7 (R2H1) scFv (scFv)
scFv: EVQLVESGGGLVQPGGSLRLSCAASGFNISSSYIHWVRQAPGKGLEWVAYIYSSYGSTYYADSVKGRFTISADTSKNTAYLQMNSLRAEDTAVYYCARASWYALDYWGQGTLVTVSSGSAASGSSGGSSSGADIQMTQSPSSLSASVGDRVTITCRASQSVSSAVAWYQQKPGKAPKLLIYSASSLYSGVPSRFSGSRSGTDFTLTISSLQPEDFATYYCQQYWYGVAPITFGQGTKVEIK

binding result (FZD5): binds
B4: F3: antiFZD5, 8 (2919) scFv (scFv)
scFv: EVQLVESGGGLVQPGGSLRLSCAASGFNISYSYIHWVRQAPGKGLEWVASIYSSSGSTSYADSVKGRFTISADTSKNTAYLQMNSLRAEDTAVYYCARGAIDYWGQGTLVTVSSGGGGSGGGGSGGGGSDIQMTQSPSSLSASVGDRVTITCRASQSVSSAVAWYQQKPGKAPKLLIYSASSLYSGVPSRFSGSRSGTDFTLTISSLQPEDFATYYCQQWYSSGHVLITFGQGTKVEIK

binding result (LRP6E1E2): binds
B5: αGFP:5:L1:Fc (bispecific antibody)
chain: QVQLVESGGGLVQPGGSLRLSCAASGFTFSRYGMHWVRQAPGKGLEWVSGISSIGSNTYYADSVKGRFTISRDNSKNTLYLQMNSLRAEDTAVYYCARWYKTYIDVWGQGTLVTVSSGGGGSGGGGSGGGGSDIELTQPPSVSVAPGQTARISCSGDNLGKKYVYWYQQKPGQAPVLVIYGDDERPSGIPERFSGSNSGNTATLTISGTQAEDEADYYCASYDSSHILIVFGGGTKLTVLGSGSGDVKLVESGGGLVKLGGSLRLSCAASGFSFSTSYMSWVRQTPEKRLELVAAINLNGGSTYYSDTVKGRFTISRDNAKNTLYLQMSSLKSEDTAFYYCASELAGYGTPFAYWGQGTLVTVSAGSAASGSSGGSSSGADIVLTQSPATLSVTPGDSVSLSCKASQSISYNLHWYQQKSHESPRLLIKYTSQSISGIPSRFSGSGSGTDFTLTINNVETEDFGMYFCQQSNSWPLTFGAGTKLEVKGSGSGDKTHTCPPCPAPEAAGGPSVFLFPPKPKDTLMISRTPEVTCVVVDVSHEDPEVKFNWYVDGVEVHNAKTKPREEQYNSTYRVVSVLTVLHQDWLNGKEYKCKVSNKALGAPIEKTISKAKGQPREPQVYTLPPSREEMTKNQVSLTCLVKGFYPSDIAVEWESNGQPENNYKTTPPVLDSDGSFFLYSKLTVDKSRWQQGNVFSCSVMHEALHNHYTQKSLSLSPGK
notes: 0FZD:2LRP control

binding result (LRP6E1E2): binds
B6: L1:5:αGFP:Fc (bispecific antibody)
chain: DVKLVESGGGLVKLGGSLRLSCAASGFSFSTSYMSWVRQTPEKRLELVAAINLNGGSTYYSDTVKGRFTISRDNAKNTLYLQMSSLKSEDTAFYYCASELAGYGTPFAYWGQGTLVTVSAGSAASGSSGGSSSGADIVLTQSPATLSVTPGDSVSLSCKASQSISYNLHWYQQKSHESPRLLIKYTSQSISGIPSRFSGSGSGTDFTLTINNVETEDFGMYFCQQSNSWPLTFGAGTKLEVKGSGSGQVQLVESGGGLVQPGGSLRLSCAASGFTFSRYGMHWVRQAPGKGLEWVSGISSIGSNTYYADSVKGRFTISRDNSKNTLYLQMNSLRAEDTAVYYCARWYKTYIDVWGQGTLVTVSSGGGGSGGGGSGGGGSDIELTQPPSVSVAPGQTARISCSGDNLGKKYVYWYQQKPGQAPVLVIYGDDERPSGIPERFSGSNSGNTATLTISGTQAEDEADYYCASYDSSHILIVFGGGTKLTVLGSGSGDKTHTCPPCPAPEAAGGPSVFLFPPKPKDTLMISRTPEVTCVVVDVSHEDPEVKFNWYVDGVEVHNAKTKPREEQYNSTYRVVSVLTVLHQDWLNGKEYKCKVSNKALGAPIEKTISKAKGQPREPQVYTLPPSREEMTKNQVSLTCLVKGFYPSDIAVEWESNGQPENNYKTTPPVLDSDGSFFLYSKLTVDKSRWQQGNVFSCSVMHEALHNHYTQKSLSLSPGK
notes: 0FZD:2LRP control

binding result (FZD8 CRD): binds
binding result (LRP6E3E4 [2]): binds
B7: L2:5:F3_His (bispecific antibody)
chain: EVQLVESGGGLVQPGGSLRLSCAASGFTFTSYYISWVRQAPGKGLEWVAEISPYSGSTYYADSVKGRFTISADTSKNTAYLQMNSLRAEDTAVYYCALRARPPIRLHPRGSVMDYWGQGTLVTVSSGSAASGSSGGSSSGADIQMTQSPSSLSASVGDRVTITCRASQDVSTAVAWYQQKPGKAPKLLIYSASFLYSGVPSRFSGSGSGTDFTLTISSLQPEDFATYYCQQSYTTPPTFGQGTKVEIKGSGSGEVQLVESGGGLVQPGGSLRLSCAASGFNISYSYIHWVRQAPGKGLEWVASIYSSSGSTSYADSVKGRFTISADTSKNTAYLQMNSLRAEDTAVYYCARGAIDYWGQGTLVTVSSGGGGSGGGGSGGGGSDIQMTQSPSSLSASVGDRVTITCRASQSVSSAVAWYQQKPGKAPKLLIYSASSLYSGVPSRFSGSRSGTDFTLTISSLQPEDFATYYCQQWYSSGHVLITFGQGTKVEIKGSGSGHHHHHH
notes: 1:1 tandem scFv

binding result (LRP6E3E4 [1]): binds
B8: αGFP:5:L2:Fc (bispecific antibody)
chain: QVQLVESGGGLVQPGGSLRLSCAASGFTFSRYGMHWVRQAPGKGLEWVSGISSIGSNTYYADSVKGRFTISRDNSKNTLYLQMNSLRAEDTAVYYCARWYKTYIDVWGQGTLVTVSSGGGGSGGGGSGGGGSDIELTQPPSVSVAPGQTARISCSGDNLGKKYVYWYQQKPGQAPVLVIYGDDERPSGIPERFSGSNSGNTATLTISGTQAEDEADYYCASYDSSHILIVFGGGTKLTVLGSGSGEVQLVESGGGLVQPGGSLRLSCAASGFTFTSYYISWVRQAPGKGLEWVAEISPYSGSTYYADSVKGRFTISADTSKNTAYLQMNSLRAEDTAVYYCALRARPPIRLHPRGSVMDYWGQGTLVTVSSGSAASGSSGGSSSGADIQMTQSPSSLSASVGDRVTITCRASQDVSTAVAWYQQKPGKAPKLLIYSASFLYSGVPSRFSGSGSGTDFTLTISSLQPEDFATYYCQQSYTTPPTFGQGTKVEIKGSGSGDKTHTCPPCPAPEAAGGPSVFLFPPKPKDTLMISRTPEVTCVVVDVSHEDPEVKFNWYVDGVEVHNAKTKPREEQYNSTYRVVSVLTVLHQDWLNGKEYKCKVSNKALGAPIEKTISKAKGQPREPQVYTLPPSREEMTKNQVSLTCLVKGFYPSDIAVEWESNGQPENNYKTTPPVLDSDGSFFLYSKLTVDKSRWQQGNVFSCSVMHEALHNHYTQKSLSLSPGK
notes: 0FZD:2LRP control
